Legend:
Assay in all cases: two-hybrid library CCmax;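 note: natural log of median RNA to DNA barcode read ratio; higher means stronger binding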
[1] = molecular target: T1, 4H1310-AA
T1 chain: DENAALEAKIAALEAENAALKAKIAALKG

[2] = molecular target: T2, 4H1864-AA; conditions: mean of both orientations
T2 chain: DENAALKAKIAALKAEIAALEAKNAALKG

[3] = molecular target: T3, 4H2907-AA; conditions: mean of both orientations
T3 chain: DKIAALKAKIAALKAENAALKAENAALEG

[4] = molecular target: T4, 4H2620-AA; conditions: mean of both orientations
T4 chain: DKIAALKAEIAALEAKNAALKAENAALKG

[5] = molecular target: T5, 4H171-AA; conditions: mean of both orientations
T5 chain: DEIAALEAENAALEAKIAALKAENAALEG

[6] = molecular target: T6, 4H1401-AA; conditions: mean of both orientations
T6 chain: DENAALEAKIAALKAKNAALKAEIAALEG

[7] = molecular target: T7, 4H3056-AA; conditions: mean of both orientations
T7 chain: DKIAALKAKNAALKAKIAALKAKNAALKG

[8] = molecular target: T8, 4H2198-AA; conditions: mean of both orientations
T8 chain: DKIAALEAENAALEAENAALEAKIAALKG

[9] = molecular target: T9, 4H3133-AA; conditions: mean of both orientations
T9 chain: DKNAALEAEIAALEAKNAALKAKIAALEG

[10] = molecular target: T10, 4H1842-AA; conditions: mean of both orientations
T10 chain: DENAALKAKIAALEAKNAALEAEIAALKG

[11] = molecular target: T11, 4H2553-AA; conditions: mean of both orientations
T11 chain: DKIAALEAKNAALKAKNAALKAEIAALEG

[12] = molecular target: T12, 4H2648-AA; conditions: mean of both orientations
T12 chain: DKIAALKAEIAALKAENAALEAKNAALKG

[13] = molecular target: T13, 4H174-AA; conditions: mean of both orientations
T13 chain: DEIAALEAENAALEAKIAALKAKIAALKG

[14] = molecular target: T14, 4H340-AA; conditions: mean of both orientations
T14 chain: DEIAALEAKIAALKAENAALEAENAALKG

[15] = molecular target: T15, 4H1597-AA; conditions: mean of both orientations
T15 chain: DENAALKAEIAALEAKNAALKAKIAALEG

DENAALEAKIAALEAENAALKAKIAALKG [4H1310-AA] showed an interaction score [1] of 1.62, an interaction score [2] of -1.48 and an interaction score [3] of 1.34. The interaction score [4] was -1.03, the interaction score [5] was -0.8 and the interaction score [6] was 1.11. The interaction score [7] was -1.47, the interaction score [8] was -0.878 and the interaction score [9] was 0.253. It also gave an interaction score [10] of 0.334, an interaction score [11] of -1.34 and an interaction score [12] of -1.18. The interaction score [13] was 0.83, the interaction score [14] was -1.45 and the interaction score [15] was 0.746.

Source: paper PMC10397247
